In US20180179267A1 (published 2018):

B1: AB-30-3 (antibody, V domains shown)
VH: QVQLVQSGAEVKKPGSSVKVSCKASGGTFSSYAISWVRQAPGQGLEWMGVIEPIFGFANYAQKFQGRVTITADESTSTAYMELSSLRSEDTAVYYCARDAGCSSTSCHKDVYFDYWGQGTLVTVSS
VL: DIQMTQSPSSLSASVGDRVTITCRASQSISSYLNWYQQKPGKAPKLLIYGASSLQSGVPSRFSGSGSGTDFTLTISSLQPEDFATYYCQQAYYPPWTFGGGTKVEIKR
B2: AB-31 (antibody, V domains shown)
VH: EVQLVESGGGLVQPGRSLRLSCAASGFTFYDYNMHWVRQAPGKGLEWVSGISWNSGSIAYADSVKGRFTISRDNAKNSLYLQMNSLRAEDTALYYCAKAQKGTAFDIWGQGTMVTVSS
VL: DIQMTQSPSSLSASVGDRVTITCQASQDITNYLNWYQQKPGKAPKLLIYDASNLETGVPSRFSGSGSGTDFTFTISSLQPEDIATYYCQQYPVYPPTFGGGTKVEIKR

Experiments:
[1] = target: T1, LukGH of S. aureus USA300 TCH1516 (UniProt Q2FFA2 28-351; P21224 30-338); assay: MSD; Fab
T1 chain 1: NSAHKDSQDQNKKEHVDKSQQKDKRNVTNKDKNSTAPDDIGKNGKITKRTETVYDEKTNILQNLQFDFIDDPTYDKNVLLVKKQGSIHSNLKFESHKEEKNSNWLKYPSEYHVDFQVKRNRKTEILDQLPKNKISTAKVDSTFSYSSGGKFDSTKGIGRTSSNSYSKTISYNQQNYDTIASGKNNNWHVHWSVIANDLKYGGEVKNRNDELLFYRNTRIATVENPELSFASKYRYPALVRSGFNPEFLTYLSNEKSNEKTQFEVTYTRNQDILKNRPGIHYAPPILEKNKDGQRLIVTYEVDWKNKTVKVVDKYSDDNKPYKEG
T1 chain 2: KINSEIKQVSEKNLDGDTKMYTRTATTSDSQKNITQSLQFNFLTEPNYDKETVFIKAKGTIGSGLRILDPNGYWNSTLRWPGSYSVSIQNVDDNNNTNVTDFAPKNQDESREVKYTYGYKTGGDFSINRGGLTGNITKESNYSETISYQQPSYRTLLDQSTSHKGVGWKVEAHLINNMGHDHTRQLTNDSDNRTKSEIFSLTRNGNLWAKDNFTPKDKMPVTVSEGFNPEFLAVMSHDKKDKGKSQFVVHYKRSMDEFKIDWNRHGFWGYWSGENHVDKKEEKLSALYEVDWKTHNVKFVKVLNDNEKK

LukG_TCH1516 [2] = target: T2, LukG_TCH1516; assay: MSD; Fab
T2 chain: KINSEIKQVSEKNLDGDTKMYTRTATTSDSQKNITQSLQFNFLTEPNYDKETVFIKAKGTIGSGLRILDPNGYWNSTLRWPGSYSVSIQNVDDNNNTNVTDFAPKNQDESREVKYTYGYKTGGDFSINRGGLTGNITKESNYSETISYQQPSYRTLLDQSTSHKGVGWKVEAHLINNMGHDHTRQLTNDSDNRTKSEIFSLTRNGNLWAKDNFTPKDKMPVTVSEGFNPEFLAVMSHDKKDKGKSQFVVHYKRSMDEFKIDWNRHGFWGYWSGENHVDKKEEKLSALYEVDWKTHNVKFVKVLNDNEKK

LukGH_H19 = target: T3, LukGH_H19; assay: ForteBio
T3 chain 1: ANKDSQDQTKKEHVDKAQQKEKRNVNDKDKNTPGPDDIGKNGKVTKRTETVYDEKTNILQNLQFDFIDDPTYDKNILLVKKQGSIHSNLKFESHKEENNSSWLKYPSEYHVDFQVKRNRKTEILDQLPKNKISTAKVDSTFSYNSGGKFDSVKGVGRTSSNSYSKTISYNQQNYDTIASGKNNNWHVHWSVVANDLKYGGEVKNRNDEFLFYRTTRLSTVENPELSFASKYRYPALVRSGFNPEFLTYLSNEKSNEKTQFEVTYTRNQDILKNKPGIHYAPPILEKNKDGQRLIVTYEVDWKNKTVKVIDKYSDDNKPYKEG
T3 chain 2: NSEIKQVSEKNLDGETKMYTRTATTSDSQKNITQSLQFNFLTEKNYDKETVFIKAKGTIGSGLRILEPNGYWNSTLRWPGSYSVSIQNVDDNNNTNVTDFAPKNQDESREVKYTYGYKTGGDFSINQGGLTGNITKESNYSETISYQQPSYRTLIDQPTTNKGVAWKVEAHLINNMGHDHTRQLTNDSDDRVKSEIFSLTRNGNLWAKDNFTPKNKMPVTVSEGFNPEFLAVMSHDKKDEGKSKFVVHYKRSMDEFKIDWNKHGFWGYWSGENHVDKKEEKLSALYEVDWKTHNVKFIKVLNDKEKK

[3] = target: T1, LukGH of S. aureus USA300 TCH1516; assay: ForteBio
LukG_TCH1516 [4] = target: T2, LukG_TCH1516; assay: ForteBio
LukGH_MSHR1132 = target: T4, LukGH_MSHR1132; assay: ForteBio
T4 chain 1: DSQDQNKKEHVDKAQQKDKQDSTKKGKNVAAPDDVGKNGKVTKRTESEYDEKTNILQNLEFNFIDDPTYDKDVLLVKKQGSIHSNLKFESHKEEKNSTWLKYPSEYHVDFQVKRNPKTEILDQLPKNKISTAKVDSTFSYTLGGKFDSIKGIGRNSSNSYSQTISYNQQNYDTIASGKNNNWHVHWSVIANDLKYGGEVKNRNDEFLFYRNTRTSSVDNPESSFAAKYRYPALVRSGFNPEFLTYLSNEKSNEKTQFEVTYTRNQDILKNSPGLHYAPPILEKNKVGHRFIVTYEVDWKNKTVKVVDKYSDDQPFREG
T4 chain 2: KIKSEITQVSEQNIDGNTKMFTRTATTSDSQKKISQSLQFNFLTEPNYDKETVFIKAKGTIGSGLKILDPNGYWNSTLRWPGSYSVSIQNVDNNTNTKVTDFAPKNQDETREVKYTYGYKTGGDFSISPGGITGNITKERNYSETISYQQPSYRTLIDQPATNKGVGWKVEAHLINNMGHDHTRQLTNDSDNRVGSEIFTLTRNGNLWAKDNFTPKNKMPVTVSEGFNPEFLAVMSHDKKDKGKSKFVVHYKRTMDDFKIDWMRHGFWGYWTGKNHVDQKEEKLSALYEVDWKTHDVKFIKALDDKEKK

LukGH_MRSA252 = target: T5, LukGH_MRSA252; assay: ForteBio
T5 chain 1: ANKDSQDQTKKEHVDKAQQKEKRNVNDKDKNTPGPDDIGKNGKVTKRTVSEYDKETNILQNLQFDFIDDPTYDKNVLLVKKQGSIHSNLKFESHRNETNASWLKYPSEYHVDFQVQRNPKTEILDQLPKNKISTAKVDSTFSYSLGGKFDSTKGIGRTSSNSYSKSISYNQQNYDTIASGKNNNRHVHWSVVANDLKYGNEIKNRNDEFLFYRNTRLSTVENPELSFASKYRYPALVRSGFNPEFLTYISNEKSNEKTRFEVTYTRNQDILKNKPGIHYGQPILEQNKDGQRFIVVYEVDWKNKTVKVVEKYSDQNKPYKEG
T5 chain 2: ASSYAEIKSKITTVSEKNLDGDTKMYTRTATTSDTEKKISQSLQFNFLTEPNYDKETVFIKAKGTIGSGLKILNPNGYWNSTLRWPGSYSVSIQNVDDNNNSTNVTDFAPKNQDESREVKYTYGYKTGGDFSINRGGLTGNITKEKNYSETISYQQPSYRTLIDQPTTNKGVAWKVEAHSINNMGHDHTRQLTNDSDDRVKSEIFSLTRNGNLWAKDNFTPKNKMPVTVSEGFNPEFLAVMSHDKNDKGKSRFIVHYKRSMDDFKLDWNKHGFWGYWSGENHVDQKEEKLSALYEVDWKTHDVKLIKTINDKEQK

| Binder | Kd [1] | Kd (LukG_TCH1516 [2]) | Kd (LukGH_H19) | Kd [3] | Kd (LukG_TCH1516 [4]) | Kd (LukGH_MSHR1132) | Kd (LukGH_MRSA252) |
| --- | --- | --- | --- | --- | --- | --- | --- |
| B1 | 0.0005 nM | 0.046 nM | 0.22 nM | 0.24 nM | 15.5 nM | 0.39 nM | 0.28 nM |
| B2 | 0.00052 nM | 0.12 nM | 0.24 nM | < 0.1 nM | 9.7 nM | 0.25 nM | 0.25 nM |
